Measurements from publication PMC5552345 (PLoS Pathogens, 2017).
Where a chain is given by its changes, count along the chain named. In names and notes the source's numbering stands.

How the values were obtained:
[1] = molecular target: T1, (NANP)6 peptide (Plasmodium falciparum CSP repeat, …); test: ITC; 25°C; titration of 2A10 FAB or complete 2A10 with antigen; independent binding sites model; single titration each; conditions: both partners purified
T1 construct: printed as (NANP)6, written out here; a short segment of the antigenic NANP-repeat region of P. falciparum CSP; also called synthetic peptide antigen (NANP)6; source: synthetic peptide
T1 chain: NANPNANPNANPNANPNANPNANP

[2] = molecular target: T2, (NANP)9 peptide (Plasmodium falciparum CSP repeat, …); test: ELISA; recombinant 2A10, germline precursor, hybrids and their point mutants tested on the (NANP)9 peptide; details in S1 Methods
T2 construct: printed as (NANP)9, written out here; NANP repeat of P. falciparum CSP
T2 chain: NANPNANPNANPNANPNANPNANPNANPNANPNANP

B1: 2A10 antigen-binding fragment (FAB) (Fab, V domains shown)
VH: QIQLVQSGPELKKPGETVKISCKASGYTFTNYGINWVKQAPGKGLKWMGWINTITEEPTFAEEFTGRFAFSLETSASTAYLQINNLKNEDTATYFCARGSEFGRLVYWGQGASVTVSS
VL: DIQMTQTTSSLSASLGDRVTISCSASQGISNYLNWYQQKPDGTVKLLIFYTSTLYSGVPSRFSGSGSGTDYSLTISNLEPEDIATYYCQQYSRFPYVFGGGTKLEIK
notes: heavy chain part of the 2A10 FAB; as the heavy chain of m1; light chain of the 2A10 FAB; as the light chain of m1; also called 2A10 FAB; 2A10 FAB fragment; source: purified
Q: With B1 as the binder, how does the Ka [1] read?
A: The Ka was 2.37e+06 M⁻¹.

Q: What about the Kd [1] of the same binder?
A: Its Kd is 420 nM.

Q: What about the dH [1] of the same binder?
A: The dH was -113 kJ/mol complex.

Q: And the “stoichiometry N” value [1]?
A: The value was 2.16 FAB per Ag.

B2: predicted germline precursor to the 2A10 antibody (2A10 gAb) (antibody, V domains shown)
VH: B1 VH with I34M, I54N, E56G, F60Y, T65K, V106D
VL: B1 VL with F49Y, T53S, Y55H, R93K, F94L, V97T
notes: predicted germline heavy chain (gHC) of 2A10 by V-quest; the 2A10 heavy chain carries 6 mutations against it; predicted germline light chain (gLC) of 2A10 by V-quest; the 2A10 light chain carries 7 mutations against it; also called gHC + gLC; source: HEK293T cells, expressed
Q: Does B2 bind [2]?
A: Result: binds

B3: hybrid antibody: 2A10 light chain (mLC) paired with germline heavy chain (gHC) (antibody, V domains shown)
VH: B1 VH with I34M, I54N, E56G, F60Y, T65K, V106D
VL: B1 VL
notes: as the heavy chain of m17 (gHC); as the light chain of m7; also called mLC + gHC; source: HEK293T cells, expressed
Q: Does B3 bind [2]?
A: Result: binds

B4: hybrid antibody mLC + gHC with heavy chain T67F (antibody, V domains shown)
VH: B1 VH with I34M, I54N, E56G, T65K, V106D
VL: B1 VL
notes: as the heavy chain of m17 (gHC); as the light chain of m7; source: HEK293T cells, expressed
Q: Does B4 bind [2]?
A: Result: binds

B5: hybrid antibody mLC + gHC with heavy chain M39I (antibody, V domains shown)
VH: B1 VH with I54N, E56G, F60Y, T65K, V106D
VL: B1 VL
notes: as for B4
Q: Does B5 bind [2]?
A: Result: binds

B6: 2A10 gAb with light chain H68Y (antibody, V domains shown)
VH: B1 VH with I34M, I54N, E56G, F60Y, T65K, V106D
VL: B1 VL with F49Y, T53S, R93K, F94L, V97T
notes: as the heavy chain of m17 (gHC); as the light chain of m17 (gLC); source: HEK293T cells, expressed
Q: Does B6 bind [2]?
A: Result: binds

B7: hybrid antibody mLC + gHC with heavy chain N59I (antibody, V domains shown)
VH: B1 VH with I34M, E56G, F60Y, T65K, V106D
VL: B1 VL
notes: as for B4
Q: Does B7 bind [2]?
A: Result: binds

B8: 2A10 gAb with light chain T117V (antibody, V domains shown)
VH: B1 VH with I34M, I54N, E56G, F60Y, T65K, V106D
VL: B1 VL with F49Y, T53S, Y55H, R93K, F94L
notes: as for B6
Q: Does B8 bind [2]?
A: Result: binds

B9: 2A10 gAb with light chain L114F (antibody, V domains shown)
VH: B1 VH with I34M, I54N, E56G, F60Y, T65K, V106D
VL: B1 VL with F49Y, T53S, Y55H, R93K, V97T
notes: as for B6
Q: Does B9 bind [2]?
A: Result: binds

B10: recombinant antibody corresponding to the 2A10 mAb (antibody, V domains shown)
VH: B1 VH
VL: B1 VL
notes: 2A10 heavy chain (mHC), as the heavy chain of m1; FAB part in the deposited structures; 2A10 light chain (mLC), as the light chain of m1; in the deposited structures; also called mHC + mLC; source: HEK293T cells, expressed
Q: Does B10 bind [2]?
A: Result: binds

B11: 2A10 gAb with light chain L114F and T117V (antibody, V domains shown)
VH: B1 VH with I34M, I54N, E56G, F60Y, T65K, V106D
VL: B1 VL with F49Y, T53S, Y55H, R93K
notes: as the heavy chain of m17 (gHC); as the light chain of m17 (gLC); also called L114F and T117V introduced simultaneously; source: HEK293T cells, expressed
Q: Does B11 bind [2]?
A: Result: binds
